Bridge positions count the residues as written; N and C are the ends. Square brackets hold non-standard residues; d marks the D form. S5 = C=CCCC[C@](C)(N)C(=O)O
B1: SP-77 (peptide)
peptide: Ac-FIDEE[S5]LMS[S5]VIEMGLDRIKELPELWL-NH2
modifications: staple 6-10
SMILES: CC[C@H](C)[C@H](NC(=O)[C@H](Cc1ccccc1)NC(C)=O)C(=O)N[C@@H](CC(=O)O)C(=O)N[C@@H](CCC(=O)O)C(=O)N[C@@H](CCC(=O)O)C(=O)N[C@@]1(C)CCCC=CCCC[C@@](C)(C(=O)N[C@H](C(=O)N[C@H](C(=O)N[C@@H](CCC(=O)O)C(=O)N[C@@H](CCSC)C(=O)NCC(=O)N[C@@H](CC(C)C)C(=O)N[C@@H](CC(=O)O)C(=O)N[C@@H](CCCNC(=N)N)C(=O)N[C@H](C(=O)N[C@@H](CCCCN)C(=O)N[C@@H](CCC(=O)O)C(=O)N[C@@H](CC(C)C)C(=O)N2CCC[C@H]2C(=O)N[C@@H](CCC(=O)O)C(=O)N[C@@H](CC(C)C)C(=O)N[C@@H](Cc2c[nH]c3ccccc23)C(=O)N[C@@H](CC(C)C)C(N)=O)[C@@H](C)CC)[C@@H](C)CC)C(C)C)NC(=O)[C@H](CO)NC(=O)[C@H](CCSC)NC(=O)[C@H](CC(C)C)NC1=O
B2: SP-90 (peptide)
peptide: Ac-FIDEEVLM[S5]LVI[S5]MGLDRIKELPELW-NH2
modifications: staple 9-13
SMILES: CC[C@H](C)[C@H](NC(=O)[C@H](Cc1ccccc1)NC(C)=O)C(=O)N[C@@H](CC(=O)O)C(=O)N[C@@H](CCC(=O)O)C(=O)N[C@@H](CCC(=O)O)C(=O)N[C@H](C(=O)N[C@@H](CC(C)C)C(=O)N[C@@H](CCSC)C(=O)N[C@@]1(C)CCCC=CCCC[C@@](C)(C(=O)N[C@@H](CCSC)C(=O)NCC(=O)N[C@@H](CC(C)C)C(=O)N[C@@H](CC(=O)O)C(=O)N[C@@H](CCCNC(=N)N)C(=O)N[C@H](C(=O)N[C@@H](CCCCN)C(=O)N[C@@H](CCC(=O)O)C(=O)N[C@@H](CC(C)C)C(=O)N2CCC[C@H]2C(=O)N[C@@H](CCC(=O)O)C(=O)N[C@@H](CC(C)C)C(=O)N[C@@H](Cc2c[nH]c3ccccc23)C(N)=O)[C@@H](C)CC)NC(=O)[C@H]([C@@H](C)CC)NC(=O)[C@H](C(C)C)NC(=O)[C@H](CC(C)C)NC1=O)C(C)C
B3: SP-93 (peptide)
peptide: Ac-FIDEEVLM[S5]LVI[S5]MGLDRIKELP-NH2
modifications: staple 9-13
SMILES: CC[C@H](C)[C@H](NC(=O)[C@H](Cc1ccccc1)NC(C)=O)C(=O)N[C@@H](CC(=O)O)C(=O)N[C@@H](CCC(=O)O)C(=O)N[C@@H](CCC(=O)O)C(=O)N[C@H](C(=O)N[C@@H](CC(C)C)C(=O)N[C@@H](CCSC)C(=O)N[C@@]1(C)CCCC=CCCC[C@@](C)(C(=O)N[C@@H](CCSC)C(=O)NCC(=O)N[C@@H](CC(C)C)C(=O)N[C@@H](CC(=O)O)C(=O)N[C@@H](CCCNC(=N)N)C(=O)N[C@H](C(=O)N[C@@H](CCCCN)C(=O)N[C@@H](CCC(=O)O)C(=O)N[C@@H](CC(C)C)C(=O)N2CCC[C@H]2C(N)=O)[C@@H](C)CC)NC(=O)[C@H]([C@@H](C)CC)NC(=O)[C@H](C(C)C)NC(=O)[C@H](CC(C)C)NC1=O)C(C)C
B4: SP-97 (peptide)
peptide: Ac-FIDEEVLM[S5]LVI[S5]MGLDRI-NH2
modifications: staple 9-13
SMILES: CC[C@H](C)[C@H](NC(=O)[C@H](CCCNC(=N)N)NC(=O)[C@H](CC(=O)O)NC(=O)[C@H](CC(C)C)NC(=O)CNC(=O)[C@H](CCSC)NC(=O)[C@]1(C)CCCC=CCCC[C@](C)(NC(=O)[C@H](CCSC)NC(=O)[C@H](CC(C)C)NC(=O)[C@@H](NC(=O)[C@H](CCC(=O)O)NC(=O)[C@H](CCC(=O)O)NC(=O)[C@H](CC(=O)O)NC(=O)[C@@H](NC(=O)[C@H](Cc2ccccc2)NC(C)=O)[C@@H](C)CC)C(C)C)C(=O)N[C@@H](CC(C)C)C(=O)N[C@@H](C(C)C)C(=O)N[C@@H]([C@@H](C)CC)C(=O)N1)C(N)=O

Each binder was assayed against T1, His6-tagged p300 (AA 323-423) (UniProt Q09472 323-423) (assay: TR-FRET HIF1a/p300 displacement; grade = IC50 >700 nM).
T1 construct: range 323-423; also called p300-CH; not shown: His6 tag
Summary of the method: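 Competitor peptides were added to the HIF1α CTAD/p300 complex (300 nM final) in 150 mM NaCl, 20 mM HEPES pH 7.4, 7.5 mM CHAPS and 1 mM DTT for 1 h at room temperature. Anti-Flag-K (0.5 μM) and anti-6×His-D2 (4 nM) then followed for 2 h. IC50 came from a one-site logIC50 fit of the donor/acceptor ratio.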

T1 sequence (Q09472 323-423 limits assumed): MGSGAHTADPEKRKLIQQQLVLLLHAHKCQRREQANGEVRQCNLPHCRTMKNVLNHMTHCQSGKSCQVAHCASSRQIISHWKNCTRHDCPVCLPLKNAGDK

| IC50 | Binder |
| --- | --- |
| > 700 nM | B1 |
| > 700 nM | B2 |
| > 700 nM | B3 |
| > 700 nM | B4 |

Source: patent publication US20190225650A1, “PEPTIDOMIMETIC MACROCYCLES AND USE THEREOF IN REGULATING HIF1ALPHA” (AILERON THERAPEUTICS, INC., priority 2013, published 2019)
